# According to publication PMC7831708:
# Molecular target: recombinant human PD-1 (human) (UniProt Q15116)
# Assay: ELISA
# Sequence of UniProt Q15116 (Q15116 25-170): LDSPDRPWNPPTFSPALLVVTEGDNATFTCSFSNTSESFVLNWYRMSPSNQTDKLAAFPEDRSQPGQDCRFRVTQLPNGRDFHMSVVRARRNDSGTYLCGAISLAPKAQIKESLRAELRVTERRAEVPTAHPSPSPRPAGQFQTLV
substance,measurement,value
Recombinant cynomolgus monkey PD-L1.mFc (Fc fusion),EC50,2.88 nM
